For this experiment, the target named is mammalian voltage-gated Kv1.2 channel (mammalian).

Ends that are not written are not given here.

B1: [Q15]-MTX (peptide)
peptide: VSCTGSKDCYAPCRQQTGCPNAKCINKSCKCYGC
modifications: not fully specified; ends and bridges not checked
Molecule B1 returned a potency on the channel of 47 pM.

The record behind these values is patent publication US20090062198A1.
